Reference: patent US20250276075A1, “METHODS OF TREATING AXL-EXPRESSING CANCERS WITH ANTI-AXL ANTIBODIES, ANTIBODY FRAGMENTS AND THEIR IMMUNOCONJUGATES” (BIOATLA, INC., priority 2020, published 2025)
Changes are numbered by the printed parent chain. Numbers in names are those of the source.

B1: LC-P095K (antibody, V domains shown)
VH: EVQLVQSGAEVKKPGATVKISCKVSGYSFTGHTMNWIRQPPGKGLEWIGLIKPSNGGTSYNQKFKGRVTISADKSISTAYLQWSSLKASDTAMYYCAHGHYESYFAMDYWGQGTLVTVSS
VL: DIQMTQSPSSLSASVGDRVTITCKASQDVSSAVAWYQQKPGQAPRLLIYWASTRHTGVPSRFSGSGSGTEFTLTISSLQPDDFATYYCQEHFSTKLTFGQGTKVEIK
B2: HC-S103M (antibody, V domains shown)
VH: B1 VH with S103M
VL: B1 VL with K95P
B3: HC-E102Y (antibody, V domains shown)
VH: B1 VH with E102Y
VL: B1 VL with K95P
B4: LC-L096R (antibody, V domains shown)
VH: B1 VH
VL: B1 VL with K95P, L96R
B5: HC-S103D (antibody, V domains shown)
VH: B1 VH with S103D
VL: B1 VL with K95P
B6: LC-L096G (antibody, V domains shown)
VH: B1 VH
VL: B1 VL with K95P, L96G
B7: HC-S103N (antibody, V domains shown)
VH: B1 VH with S103N
VL: B1 VL with K95P
B8: LC-T097I (antibody, V domains shown)
VH: B1 VH
VL: B1 VL with K95P, T97I
B9: HC-H100W (antibody, V domains shown)
VH: B1 VH with H100W
VL: B1 VL with K95P
B10: LC-P095V (antibody, V domains shown)
VH: B1 VH
VL: B1 VL with K95V
B11: HC-S059T (antibody, V domains shown)
VH: B1 VH with S59T
VL: B1 VL with K95P
B12: HC-S103Q (antibody, V domains shown)
VH: B1 VH with S103Q
VL: B1 VL with K95P
B13: HC-Y104C (antibody, V domains shown)
VH: B1 VH with Y104C
VL: B1 VL with K95P
B14: HC-H100D (antibody, V domains shown)
VH: B1 VH with H100D
VL: B1 VL with K95P
B15: HC-H100E (antibody, V domains shown)
VH: B1 VH with H100E
VL: B1 VL with K95P
B16: HC-H100R (antibody, V domains shown)
VH: B1 VH with H100R
VL: B1 VL with K95P
B17: LC-H091Q (antibody, V domains shown)
VH: B1 VH
VL: B1 VL with H91Q, K95P
B18: LC-P095T (antibody, V domains shown)
VH: B1 VH
VL: B1 VL with K95T
B19: HC-S059I (antibody, V domains shown)
VH: B1 VH with S59I
VL: B1 VL with K95P
B20: LC-P095W (antibody, V domains shown)
VH: B1 VH
VL: B1 VL with K95W
B21: HC-E102V (antibody, V domains shown)
VH: B1 VH with E102V
VL: B1 VL with K95P
B22: LC-P095S (antibody, V domains shown)
VH: B1 VH
VL: B1 VL with K95S
B23: HC-H100P (antibody, V domains shown)
VH: B1 VH with H100P
VL: B1 VL with K95P
B24: HC-E102L (antibody, V domains shown)
VH: B1 VH with E102L
VL: B1 VL with K95P

What follows are molecules tested against Axl (UniProt P30530) (assay: ELISA, 1:9 dilution). Conditions: not given.

First: B1
Second: B2
The Affinity ELISA CPE mutant ratio (1:9, pH 6.0/7.4) of the first is higher: 3.47 for the first, 1.81 for the second.

Going from B3 to B4, the Affinity ELISA CPE mutant ratio (1:9, pH 6.0/7.4) rises from 1.99 to 2.18.

First: B5
Second: B6
The Affinity ELISA CPE mutant ratio (1:9, pH 6.0/7.4) of the first is lower: 2.23 for the first, 2.44 for the second.

Compared with B7, B8 is higher in Affinity ELISA CPE mutant ratio (1:9, pH 6.0/7.4): 3.18 for the first, 4.05 for the second.

Compared with B9, B10 is lower in Affinity ELISA CPE mutant ratio (1:9, pH 6.0/7.4): 5.91 for the first, 2.13 for the second.

Compared with B11, B12 is higher in Affinity ELISA CPE mutant ratio (1:9, pH 6.0/7.4): 1.93 for the first, 2.26 for the second.

Going from B13 to B14, the Affinity ELISA CPE mutant ratio (1:9, pH 6.0/7.4) rises from 1.74 to 3.09.

First: B15
Second: B16
The Affinity ELISA CPE mutant ratio (1:9, pH 6.0/7.4) of the first is higher: 3.62 for the first, 2.51 for the second.

Compared with B17, B18 is higher in Affinity ELISA CPE mutant ratio (1:9, pH 6.0/7.4): 2.01 for the first, 2.09 for the second.

Compared with B19, B20 is higher in Affinity ELISA CPE mutant ratio (1:9, pH 6.0/7.4): 2.06 for the first, 2.26 for the second.

Going from B21 to B22, the Affinity ELISA CPE mutant ratio (1:9, pH 6.0/7.4) rises from 2.51 to 3.51.

Compared with B23, B24 is higher in Affinity ELISA CPE mutant ratio (1:9, pH 6.0/7.4): 1.18 for the first, 2.7 for the second.

These molecules were tested against Axl (UniProt P30530) (assay: ELISA, 1:3 dilution). Conditions: not given.

Going from B1 to B2, the Affinity ELISA CPE mutant ratio (1:3, pH 6.0/7.4) falls from 3.84 to 1.78.

Going from B3 to B4, the Affinity ELISA CPE mutant ratio (1:3, pH 6.0/7.4) rises from 2.61 to 2.88.

Compared with B5, B6 is lower in Affinity ELISA CPE mutant ratio (1:3, pH 6.0/7.4): 4.24 for the first, 2.17 for the second.

Going from B7 to B8, the Affinity ELISA CPE mutant ratio (1:3, pH 6.0/7.4) rises from 1.07 to 3.09.

First: B9
Second: B10
The Affinity ELISA CPE mutant ratio (1:3, pH 6.0/7.4) of the first is higher: 4.94 for the first, 1.87 for the second.

Going from B11 to B12, the Affinity ELISA CPE mutant ratio (1:3, pH 6.0/7.4) falls from 1.02 to 0.912.

Compared with B13, B14 is higher in Affinity ELISA CPE mutant ratio (1:3, pH 6.0/7.4): 1.84 for the first, 2.42 for the second.

First: B15
Second: B16
The Affinity ELISA CPE mutant ratio (1:3, pH 6.0/7.4) of the first is higher: 2.77 for the first, 1.88 for the second.

Going from B17 to B18, the Affinity ELISA CPE mutant ratio (1:3, pH 6.0/7.4) rises from 1.77 to 2.5.

Going from B19 to B20, the Affinity ELISA CPE mutant ratio (1:3, pH 6.0/7.4) falls from 30.5 to 2.15.

First: B21
Second: B22
The Affinity ELISA CPE mutant ratio (1:3, pH 6.0/7.4) of the first is lower: 1.93 for the first, 2.84 for the second.

Compared with B23, B24 is higher in Affinity ELISA CPE mutant ratio (1:3, pH 6.0/7.4): 2.58 for the first, 3.27 for the second.

These molecules were tested against T1, Axl (Homo sapiens, UniProt P30530) (assay: Affinity ELISA of CPE mutant antibodies for binding to Axl at pH 6.0 over pH 7.4). Conditions: heavy chain variable region mutants; 1:3 dilution.
T1 sequence (P30530 26-451 limits assumed): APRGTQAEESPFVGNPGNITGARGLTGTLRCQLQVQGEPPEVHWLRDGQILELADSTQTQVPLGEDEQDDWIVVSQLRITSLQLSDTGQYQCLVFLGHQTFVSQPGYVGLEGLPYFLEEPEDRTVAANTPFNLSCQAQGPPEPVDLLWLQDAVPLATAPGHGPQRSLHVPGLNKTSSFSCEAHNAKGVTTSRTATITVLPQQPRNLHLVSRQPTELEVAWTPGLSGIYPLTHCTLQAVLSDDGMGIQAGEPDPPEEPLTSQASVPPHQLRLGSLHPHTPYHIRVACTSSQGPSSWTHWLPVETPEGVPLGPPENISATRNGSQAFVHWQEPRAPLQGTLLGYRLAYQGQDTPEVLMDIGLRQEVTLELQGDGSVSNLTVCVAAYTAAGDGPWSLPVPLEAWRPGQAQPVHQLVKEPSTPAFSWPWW
In short: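 Single-point mutant anti-Axl antibody library (CPE) screened by ELISA for binding at pH 6.0 versus pH 7.4, at 1:3 and 1:9 antibody dilutions, in serum with FLAG-tag detection and carbonate (Krebs-Ringer) buffer. Selection criterion: pH 6.0/pH 7.4 binding ratio ≥1.5 at either dilution.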

First: B2
Second: B3
The “Affinity ELISA CPE mutant ratio (1:3, pH 6.0/7.4)” value of the first is lower: 1.784 for the first, 2.610 for the second.

Going from B5 to B7, the “Affinity ELISA CPE mutant ratio (1:3, pH 6.0/7.4)” value falls from 4.237 to 1.075.

Compared with B9, B11 is lower in “Affinity ELISA CPE mutant ratio (1:3, pH 6.0/7.4)” value: 4.937 for the first, 1.021 for the second.

First: B12
Second: B13
The “Affinity ELISA CPE mutant ratio (1:3, pH 6.0/7.4)” value of the first is lower: 0.912 for the first, 1.845 for the second.

Compared with B14, B15 is higher in “Affinity ELISA CPE mutant ratio (1:3, pH 6.0/7.4)” value: 2.416 for the first, 2.775 for the second.

First: B16
Second: B19
The “Affinity ELISA CPE mutant ratio (1:3, pH 6.0/7.4)” value of the first is lower: 1.877 for the first, 30.492 for the second.

Going from B21 to B23, the “Affinity ELISA CPE mutant ratio (1:3, pH 6.0/7.4)” value rises from 1.931 to 2.575.

For B24, the “Affinity ELISA CPE mutant ratio (1:3, pH 6.0/7.4)” value was 3.266.

Same assay, conditions: heavy chain variable region mutants; 1:9 dilution

First: B2
Second: B3
The “Affinity ELISA CPE mutant ratio (1:9, pH 6.0/7.4)” value of the first is lower: 1.806 for the first, 1.990 for the second.

Compared with B5, B7 is higher in “Affinity ELISA CPE mutant ratio (1:9, pH 6.0/7.4)” value: 2.230 for the first, 3.179 for the second.

Going from B9 to B11, the “Affinity ELISA CPE mutant ratio (1:9, pH 6.0/7.4)” value falls from 5.908 to 1.926.

Going from B12 to B13, the “Affinity ELISA CPE mutant ratio (1:9, pH 6.0/7.4)” value falls from 2.256 to 1.741.

Compared with B14, B15 is higher in “Affinity ELISA CPE mutant ratio (1:9, pH 6.0/7.4)” value: 3.094 for the first, 3.623 for the second.

Going from B16 to B19, the “Affinity ELISA CPE mutant ratio (1:9, pH 6.0/7.4)” value falls from 2.507 to 2.055.

Going from B21 to B23, the “Affinity ELISA CPE mutant ratio (1:9, pH 6.0/7.4)” value falls from 2.507 to 1.179.

In the case of B24, the “Affinity ELISA CPE mutant ratio (1:9, pH 6.0/7.4)” value is reported as 2.698.

Same assay, conditions: light chain variable region mutants; 1:3 dilution

Compared with B1, B4 is lower in “Affinity ELISA CPE mutant ratio (1:3, pH 6.0/7.4)” value: 3.840 for the first, 2.876 for the second.

Compared with B6, B8 is higher in “Affinity ELISA CPE mutant ratio (1:3, pH 6.0/7.4)” value: 2.165 for the first, 3.086 for the second.

Going from B10 to B17, the “Affinity ELISA CPE mutant ratio (1:3, pH 6.0/7.4)” value falls from 1.871 to 1.770.

First: B18
Second: B20
The “Affinity ELISA CPE mutant ratio (1:3, pH 6.0/7.4)” value of the first is higher: 2.497 for the first, 2.148 for the second.

For B22, the “Affinity ELISA CPE mutant ratio (1:3, pH 6.0/7.4)” value was 2.841.

Same assay, conditions: light chain variable region mutants; 1:9 dilution

Going from B1 to B4, the “Affinity ELISA CPE mutant ratio (1:9, pH 6.0/7.4)” value falls from 3.468 to 2.176.

Going from B6 to B8, the “Affinity ELISA CPE mutant ratio (1:9, pH 6.0/7.4)” value rises from 2.436 to 4.049.

Going from B10 to B17, the “Affinity ELISA CPE mutant ratio (1:9, pH 6.0/7.4)” value falls from 2.132 to 2.010.

Going from B18 to B20, the “Affinity ELISA CPE mutant ratio (1:9, pH 6.0/7.4)” value rises from 2.086 to 2.263.

In the case of B22, the “Affinity ELISA CPE mutant ratio (1:9, pH 6.0/7.4)” value is reported as 3.512.
